Measured values published in patent US20150246949A1, “Desmoglein 2 (DSG2) Binding Proteins and Uses Therefor” (UNIVERSITY OF WASHINGTON THROUGH ITS CENTER FOR …, priority 2012, published 2015).
Substitutions are numbered along the chain they refer to. In names and notes the source's numbering stands.

Legend:
[1] = target: human DSG2 on cells (HeLa cells; polarized T84 cells) (human) (UniProt Q14126); test: attachment of 3H-labelled Ad3 virus (competitor) to HeLa cells pre-incubated with the dimeric knob
[2] = target: human DSG2 on cells (HeLa cells; polarized T84 cells) (human) (UniProt Q14126); test: cell-based or functional assay
[3] = target: T1, DSG2 (Homo sapiens, UniProt Q14126); test: Surface plasmon resonance of non-dimerized Ad3 fiber knobs on immobilized DSG2; type: binding; settings: knobs without dimerization domain
T1 construct: purchased Leinco Technologies, Inc. (St. Louis, Mo.)
T1 sequence (Q14126 50-609 limits assumed): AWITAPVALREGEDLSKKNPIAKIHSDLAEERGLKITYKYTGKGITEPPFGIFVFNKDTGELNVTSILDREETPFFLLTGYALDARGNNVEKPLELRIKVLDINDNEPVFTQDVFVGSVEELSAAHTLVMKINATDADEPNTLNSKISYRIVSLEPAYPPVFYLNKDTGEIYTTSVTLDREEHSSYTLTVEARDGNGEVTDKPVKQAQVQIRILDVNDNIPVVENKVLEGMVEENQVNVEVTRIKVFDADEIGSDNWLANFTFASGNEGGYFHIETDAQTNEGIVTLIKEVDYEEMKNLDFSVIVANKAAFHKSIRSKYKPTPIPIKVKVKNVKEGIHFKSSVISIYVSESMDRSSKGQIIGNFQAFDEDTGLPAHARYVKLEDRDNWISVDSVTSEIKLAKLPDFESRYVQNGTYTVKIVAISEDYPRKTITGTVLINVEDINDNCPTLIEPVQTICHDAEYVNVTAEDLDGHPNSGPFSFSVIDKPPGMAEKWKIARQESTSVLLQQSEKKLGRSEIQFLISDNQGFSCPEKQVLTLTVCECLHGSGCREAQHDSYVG
Description: FIG. 7. SPR analysis of non-dimerized Ad3 fiber knob interactions with DSG2. A) DSG2 was immobilized on sensorchips, and background was automatically subtracted from the control flow cell. The Ad3 fiber knobs (w/o dimerization domain: “noDD”) were injected for 3 minutes at 2.5 μg/ml followed by a 2.5 minutes dissociation period. B) Summary of SPR data. […] The extracted data are resumed in the table. Wt=Ad3 fiber knob without mutations
Acquisitions were done on a BIAcore 3000 instrument. HBS-N (GE-Healthcare, Pittsburgh, Pa.) supplemented with 2 mM CaCl2 was used as running buffer in all experiments at a flow rate of 5 μl/min Immobilization on CM4 sensorchip (BIAcore) was performed using DSG2 at 10 μg/ml diluted in 10 mM Acetate buffer pH 4.5 injected for 10 minutes on ethyl(dimethylaminopropyl) carbodiimide (EDC)/N-Hydroxysuccinimide (NHS) activated flow-cell. A control flow-cell was activated by (EDC/NHS) and inactivated by ethanolamine Different concentrations of Ad3 fiber knob proteins were injected for 3 minutes association followed by 2.5 minutes dissociation time, and the signal was automatically subtracted from the background of the ethanolamine deactivated EDC-NHS flow cell. Kinetic and affinity constants were calculated using the BIAeval software.

[4] = target: T2, soluble recombinant DSG2 (Homo sapiens, UniProt Q14126); test: Western blot of dimeric Ad3 fiber knob mutants probed with soluble DSG2; type: binding; settings: purified dimerized knob mutants
T2 construct: purchased Leinco Technologies, Inc. (St. Louis, Mo.)
T2 sequence (Q14126 50-609 limits assumed): T1 sequence (Q14126 50-609 limits assumed)
Description: FIG. 1. Residues found to be critically involved in binding to DSG2. A) Shown are the amino acid sequences of the Ad3 and Ad14p1 fiber knob. Beta sheets present in the Ad3 knob (PDB accession number 1H7Z_A) and Ad14 knob (PDB: 3F0Y_A) are indicated by lines. Black arrows indicate residues within the Ad3 fiber knob which, when mutated individually, ablate or reduce binding to DSG2. […] B) Schematic structure of dimeric Ad3 fiber knob mutants. The fiber knob domain and one shaft motif was fused through a flexible linker to a homodimerizing K-coil domain (41). The proteins are self-dimerizing and can be purified by His-Ni-NTA affinity chromatography. C-F) Analysis of binding of dimeric Ad3 fiber knob mutants to soluble DSG2. C and D) Coomassie staining. 10 μg of purified Ad3 fiber knob (unboiled) were loaded per lane. Trimeric forms of the fiber knobs are indicated by an arrow. The gel contained SDS and the loading buffer containing DTT, which caused the disassembly of dimers of trimeric fiber knobs as previously reported (41). E and F): Western blot using soluble recombinant DSG2 as a probe, followed by anti-DSG2-mAb and anti-mouse IgG-HRP. For comparison, JO-1 (0.5 μg/lane) is shown. The Western blots were scanned and signals were quantified.
Mini-PROTEAN precast gels (BIO-RAD, Hercules, Calif.) with 4-15% gradient polyacrylamide were used. A total of […] protein mixed with 2× loading buffer (10 mM Tris-HCl, pH6.8, 200 mM DTT, 4% SDS, 20% glycerol, 0.2% bromophenol blue) was loaded per lane. Samples were either boiled (B) for 5 min or loaded unboiled (UB). The following running buffer was used: 25 mM Tris, pH8.3, 0.192 M glycine, 0.1% SDS. After electrophoresis, proteins were transferred to nitrocellulose and incubated with recombinant human DSG2 protein and anti-DSG2 antibodies as described previously (42). The Western blots were scanned and quantified using the ImageJ 1.32 software (National Institutes of Health, Bethesda, Md.). JO-1 band intensity was set as 100%. […]

[5] = system: Ad3-GFP virus; test: Competition of Ad3-GFP virus infection on HeLa cells; type: cell-based, adenovirus serotype 3 (Ad3); settings: HeLa cells; concentrations up to 200 ug/ml
Description: (§1) FIG. 3. Competition of Ad3 virus by dimerized Ad3 knob mutants. A) Relative attachment of ^3H-labeled Ad3 virus in the presence of dimeric fiber knob mutants. 1.8×10^5 HeLa cells were incubated with Ad3 knob mutants at a concentration of 2.5 and 100 μg/ml on ice for 1 hour. Then 400 pfu/cell of ^3H-Ad3 virus was added on ice for another hour. Unbound virus particles were washed away. Attachment of virus particles incubated with PBS was taken as 100%. N=3. B) Competition of Ad3-GFP virus infection on HeLa cells. 1.5×10^5 HeLa cells were seeded into 24 well plates. Cells were incubated with the Ad3 knob mutants at increasing concentrations for one hour at room temperature. 100 pfu/cell of Ad3-GFP virus were then added and GFP expression was analyzed 18 hours later by flow cytometry. Left panel: percentage of GFP positive cells. Right panel: mean fluorescence intensity. N=3. The standard deviation was less than 10%. C) Relative attachment of ^3H-labeled Ad3 virus in the presence of dimeric fiber knob mutants with multiple mutations. The study was performed as described in B) The standard deviation was less than 10%. D) Competition of Ad3-GFP virus infection on HeLa cells. The study was performed as described in C) The standard deviation was less than 10%.
FIG. 9. Analysis of dimeric Ad3 fiber knob mutants with increased affinity to DSG2. A) Competition of Ad3-GFP virus infection on HeLa cells with dimeric affinity-enhanced mutant Y250F and JO-1 (dimeric wt Ad3 fiber knob). The experimental setting is as described for FIG. 3C. left panel: percentage of GFP positive cells. Right panel: mean fluorescence intensity. N=3. The standard deviation was less than 10%. […] 100 pfu/cell of Ad3GFP virus were then added and GFP expression was analyzed 18 hours later. […]
Competition studies were performed on HeLa cells, which express DSG2 (42). […] Transduction was measured based on GFP expression (FIG. 3B). […] Dimeric Ad3 knob mutants with combined mutations were also analyzed for their ability to compete with Ad3 virus for attachment (FIG. 3C) and infection (FIG. 3D).

[6] = system: 3H-labeled Ad3 virus; test: Competition of 3H-labeled Ad3 virus attachment to HeLa cells; type: cell-based, adenovirus serotype 3 (Ad3)
Description: as §1, with “The study was performed as described in B) The standard deviation was less than 10%. D) Competition of Ad3-GFP virus infection on HeLa cells. The study was performed as described in C) The standard deviation was less than 10%.” left out
HeLa cells were detached from culture dishes by incubation with Versene and washed with PBS. […] After the last wash, the supernatant was removed and the cell-associated radioactivity was determined by a scintillation counter. The number of VP bound per cell was calculated by using the virion specific radioactivity and the number of cells.

Question: With “dimeric Ad3 fiber knob mutant N186D, D261N, L296R (designed binder)” as the molecule, how does the Inhibition of attachment in the presence of dimeric knob (JO-1 = 100%) [1] read?
Answer: 18.5%

Question: What about the Inhibition of infection in the presence of dimeric knob (JO-1 = 100%) [2] of the same molecule?
Answer: 0%

B1: N293S/noDD (protein)
chain: NKLCSKLGNGLTFDSSNSIALKNNTLWTGPKPEANCIIEYGKQNPDSKLTLILVKNGGIVNGYVTLMGASDYVNTLFKNKNVSINVELYFDATGHILPDSSSLKTDLELKYKQTADFSARGFMPSTTAYPFVLPNAGTHNENYIFGQCYYKASDGALFPLEVTVMLNKRLPDSRTSYVMTFLWSLSAGLAPETTQATLITSPFTFSYIREDD
modifications: left off: small tags and cut ends
Question: Which “Association rate to DSG2” value [3] does the source give for B1 here?
Answer: association rate was lowest

B2: wt Ad3 knob: wild-type trimeric Ad3 fiber knob without the dimerization domain (protein)
chain: B1 chain with S186N
modifications: left off: small tags and cut ends
notes: wild-type trimeric Ad3 fiber knob without the dimerization domain
Question: Which “Association rate to DSG2” value [3] does the source give for B2 here?
Answer: slow association rate

B3: N186D, D261N, L296R: dimeric Ad3 fiber knob with combination of all three N186D, D261N, and L296R (protein)
chain: MKVSALKEKVSALKEKVSALKEKVSALKEKVSALKEGSGGGSGGGSGGGSNSIALKNNTLWTGPKPEANCIIEYGKQNPDSKLTLILVKNGGIVNGYVTLMGASDYVNTLFKDKNVSINVELYFDATGHILPDSSSLKTDLELKYKQTADFSARGFMPSTTAYPFVLPNAGTHNENYIFGQCYYKASNGALFPLEVTVMLNKRLPDSRTSYVMTFLWSLNAGRAPETTQATLITSPFTFSYIREDD
Question: What does the source list for B3?
Answer: DSG2 binding in Western blot compared to JO-1 [4]: highest level of ablation; Block of Ad3 infection [5]: did not block; Inhibition of attachment in the presence of dimeric knob (JO-1 = 100%) ([6]; Ad3 virus attachment to HeLa cells, N = 3): 18.5%; Block of Ad3 binding ([6]; HeLa cells, concentrations up to 200 ug/ml): did not block
